According to doi:10.1101/2022.10.11.511805 (bioRxiv, 2022):

Legend:
[1] = molecular target: T1, cleaved GP (GPCL): EBOV GP treated with thermolysin, glycan cap removed (Zaire ebolavirus, Mayinga-76, UniProt Q05320); assay: SPR
[2] = molecular target: T1, cleaved GP (GPCL): EBOV GP treated with …; assay: SEC
Target sequence in this assay (Q05320 33-501, chain 1 of 2): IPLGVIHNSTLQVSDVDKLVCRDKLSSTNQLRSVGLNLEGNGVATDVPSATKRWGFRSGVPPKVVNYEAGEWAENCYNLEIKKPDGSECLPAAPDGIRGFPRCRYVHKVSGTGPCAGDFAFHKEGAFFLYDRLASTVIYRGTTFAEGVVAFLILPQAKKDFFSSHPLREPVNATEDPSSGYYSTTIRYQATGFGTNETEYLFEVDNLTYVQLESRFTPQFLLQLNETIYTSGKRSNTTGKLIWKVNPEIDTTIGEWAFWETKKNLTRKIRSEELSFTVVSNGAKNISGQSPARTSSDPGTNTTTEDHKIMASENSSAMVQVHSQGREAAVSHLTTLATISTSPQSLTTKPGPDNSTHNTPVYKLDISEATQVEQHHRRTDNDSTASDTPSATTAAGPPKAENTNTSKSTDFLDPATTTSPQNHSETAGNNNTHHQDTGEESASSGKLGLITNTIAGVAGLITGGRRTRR
Target sequence in this assay (Q05320 33-650, chain 2 of 2): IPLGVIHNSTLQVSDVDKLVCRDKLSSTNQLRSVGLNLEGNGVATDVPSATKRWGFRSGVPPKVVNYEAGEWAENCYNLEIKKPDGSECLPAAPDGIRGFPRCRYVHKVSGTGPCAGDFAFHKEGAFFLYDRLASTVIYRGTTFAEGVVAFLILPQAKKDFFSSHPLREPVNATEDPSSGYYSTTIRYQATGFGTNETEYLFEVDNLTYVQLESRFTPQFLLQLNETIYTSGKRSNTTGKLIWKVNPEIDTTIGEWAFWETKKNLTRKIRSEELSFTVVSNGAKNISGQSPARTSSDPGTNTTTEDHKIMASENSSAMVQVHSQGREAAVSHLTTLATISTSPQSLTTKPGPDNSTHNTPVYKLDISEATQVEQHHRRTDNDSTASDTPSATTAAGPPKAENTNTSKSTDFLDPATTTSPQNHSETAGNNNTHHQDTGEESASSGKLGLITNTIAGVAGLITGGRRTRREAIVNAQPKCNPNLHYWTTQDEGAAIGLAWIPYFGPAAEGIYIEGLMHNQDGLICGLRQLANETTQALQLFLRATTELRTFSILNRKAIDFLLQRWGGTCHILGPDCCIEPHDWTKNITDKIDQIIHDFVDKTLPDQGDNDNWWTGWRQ

B1: REGN3479 (maftivimab) (antibody, V domains shown)
VH: EVQLVESGGGLVQPGGSLRLSCAASGFTSSSYAMNWVRQAPGKGLEWVSTISGMGGSTYYADSVKGRFTISRDNSKNTLYLQMNSLRAEDTAVYYCAKRGYPHSFDIWGQGTMVTVSS
VL: not shown
- Kd [1]: 0.14 nM

B2: REGN3471 (odesivimab) (antibody, V domains shown)
VH: EVQLVESGGGLVQPGGSLRLSCAASGFTFSSYDMHWVRQATGKGLEWVSAIGTAGDTYYPGSVKGRFTISRENAKNSLYLQMNSLRAGDTAVYYCARTWFGELYFDYWGQGTLVTVSS
VL: not shown
- Kd [1]: 15.8 nM
- fold reduction of the binding half-life relative to GP [1]: 4 fold

B3: REGN3470 Fab (Fab, V domains shown)
VH: QVQLVESGGGVVQPGRSLRLSCAASGFTFNNYGMHWVRQAPGMGLEWVAVIWHDGSDKYYADSVKGRFTISRDNSKNTLYLQMNSLRAEDTAVYYCARNWNLFDYWGQGTLVTVSS
VL: DIQMTQSPSSLSASVGDRITITCRASQSISTYLHWYQQKPGKAPKLLIYAASTLQSGVPSRFSGSGSGTDFTLTISSLQPEDFATYYCQQSFSTPPINFGQGTKLEIK
- binding result [2]: no binding
